The record followed here is patent US20200352996A1.

The target in this experiment is Tissue factor (TF) on human TNBC line MDA-MB-231 cells (human) (UniProt P13726). The experiment is described as follows: cell-based or functional assay.
Sequence of UniProt P13726 (P13726 33-295): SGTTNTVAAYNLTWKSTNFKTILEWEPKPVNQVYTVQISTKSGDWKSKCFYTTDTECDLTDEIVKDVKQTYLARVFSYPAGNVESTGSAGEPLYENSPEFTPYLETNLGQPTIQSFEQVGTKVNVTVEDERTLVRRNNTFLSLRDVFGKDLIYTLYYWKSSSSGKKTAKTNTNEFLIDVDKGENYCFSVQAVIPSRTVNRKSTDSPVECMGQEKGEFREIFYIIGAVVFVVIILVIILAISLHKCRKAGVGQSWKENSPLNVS

Take “TF-targeting CAR1 monomer (hfVIIL-CD28-4-1BB-CD3zeta), expressed on NK92MI/fCD16 cells (from UniProt P10747 153-220; Q07011 214-255; P20963 52-164)”: the cytotoxicity to TNBC cells (CytoTox Homogenous Assay, E:T ratio of 10:1) was found to be 77%.
